The source of these data is patent publication US20020151006A1 (ROCKEFELLER UNIVERSITY, published 2002).

The target in assay [1] is consolidated ligand NH2-PVpYENVG6>(…ONH2). The experiment in a line: fluorescence-based titration assay in solution.
The target of assay [2] is T1, E. coli RNA polymerase sigma-70 subunit, full-length recombinant (sigma is printed as a garbled character: … (E. coli, UniProt P00579 1-613)).
T1 construct: range 1-613; also called full-length ?^70; recombinant ?^70
Kind of assay: Ni2+-NTA agarose co-immobilization, SDS-PAGE.
Protocol: (§1) The indicated proteins were loaded onto Ni²⁺-NTA-agarose beads (L) and the unbound protein was removed (F). The beads were extensively washed and the bound protein was eluted with buffer containing 100 mM imidazole (E).
(§2) A mixture of AsiAHis and recombinant σ⁷⁰ was loaded onto Ni²⁺-NTA agarose beads (lane 4) and the unbound material removed (lane 5). The beads were subsequently washed with 10 mM imidazole buffer and then eluted with 100 mM imidazole buffer.

The target in assay [3] is T2, cleavage product containing the first 567 amino acids of sigma-70 (E. coli, UniProt P00579 1-567).
T2 construct: range 1-567; also called ?^70 fragment
Kind of assay: Ni2+-NTA agarose co-immobilization, SDS-PAGE.
Protocol: as §1, §2

Assay [4] has as its target T3, semisynthetic 600 amino acid-long sigma-70 derivative (ligation product of sigma-70 1-567 with the synthetic … (E. coli, UniProt P00579 1-567; P00579 568-600).
T3 construct: range 1-567;range 568-600; also called semisynthetic ?^70
Kind of assay: Ni2+-NTA agarose co-immobilization, SDS-PAGE.
Protocol: as §1, §2

What is called Kd is the equilibrium constant for the complex coming apart. Lower therefore signals tighter binding. Consider “Abl-[G^120C^121][SH2-^15N]SH(32), the ligation product of the Abl-SH3 and Abl-SH2 domains (from UniProt P00519 65-220)”, for which, in assay [1], the Kd was determined as 300 nM.

B1: bacteriophage T4 antisigma protein AsiA with a C-terminal hexahistidine tag (other)
chain: MNKNIDTVREIITVASILIKFSREDIVENRANFIAFLNEIGVTHEGRKLNQNSFRKIVSELTQEDKKTLIDEFNEGFEGVYRYLEMYTNKHHHHHH
notes: also called AsiAHis; AsiAHIS
On to B1, for which the binding result is “binds” in assay [2], “no binding” in assay [3] and “binds” in assay [4].
